Source: article PMC4263503 (Cell, 2014)
Like-named read-outs stand apart in the source and are kept apart here.

Experiments:
[1] = target: T1, Human Tau, hTau40 (isoform F, the longest isoform of Tau) (human, UniProt P10636-8 1-441); experiment: other fluorescence titration
[2] = target: T1, Human Tau, hTau40 (isoform F, the …); experiment: other fluorescence titration; remark: listed apart in the source

B1: Human Hsp90β (natural protein)
chain: not shown
With B1 as the binder, how does the Kd [1] read?
The Kd was 5.2 ± 3 µM.

What about the Kd [2] of the same binder?
Its Kd is 4.8 ± 1 µM.
